Literature values, collected in article PMC2848813.

Target: Hsp33 (Escherichia coli) (UniProt P0A6Y5)

Hsp33 (from UniProt P0A6Y5)
Kd: 0.6 µM
